These results are taken from patent US20220332804A1 (CSL INNOVATION, published 2022).

By Kd is commonly meant the concentration at which binding is half-saturated. High values mean lower affinity, low ones higher affinity.

Test in all cases: SPR, mAb captured, C2 mutant analyte;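 also: Anti-C2 mAbs captured on goat anti-human IgG Biacore CM5 chips, alanine or serine C2 surface mutants flowed over at 37 °C, double-referenced sensorgrams fitted to a 1:1 binding model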
(In general: SPR reads the build-up and loss of mass on a sensor chip optically.)

One assay deals with T1, human C2 N403A (human, UniProt P06681 21-752).
T1 sequence: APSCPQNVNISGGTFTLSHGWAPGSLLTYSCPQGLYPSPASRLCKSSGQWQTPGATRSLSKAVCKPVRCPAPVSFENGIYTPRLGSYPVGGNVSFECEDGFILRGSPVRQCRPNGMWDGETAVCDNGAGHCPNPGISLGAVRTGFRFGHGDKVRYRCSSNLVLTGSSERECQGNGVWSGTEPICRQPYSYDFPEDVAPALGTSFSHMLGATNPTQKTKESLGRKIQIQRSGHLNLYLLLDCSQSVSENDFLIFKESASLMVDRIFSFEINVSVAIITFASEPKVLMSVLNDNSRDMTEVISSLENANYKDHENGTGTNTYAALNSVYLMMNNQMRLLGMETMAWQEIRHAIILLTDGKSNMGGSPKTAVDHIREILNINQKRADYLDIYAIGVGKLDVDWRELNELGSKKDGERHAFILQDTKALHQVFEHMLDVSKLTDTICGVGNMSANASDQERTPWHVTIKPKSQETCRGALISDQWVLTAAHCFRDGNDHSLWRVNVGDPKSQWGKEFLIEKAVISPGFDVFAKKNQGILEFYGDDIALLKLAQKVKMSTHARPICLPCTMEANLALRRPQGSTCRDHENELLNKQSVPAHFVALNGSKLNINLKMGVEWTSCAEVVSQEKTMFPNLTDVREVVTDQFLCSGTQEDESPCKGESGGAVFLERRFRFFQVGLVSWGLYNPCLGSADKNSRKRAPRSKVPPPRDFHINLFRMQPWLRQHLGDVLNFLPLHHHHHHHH

The next assay concerns the target T2, human C2 A444S (human, UniProt P06681 21-752).
T2 sequence: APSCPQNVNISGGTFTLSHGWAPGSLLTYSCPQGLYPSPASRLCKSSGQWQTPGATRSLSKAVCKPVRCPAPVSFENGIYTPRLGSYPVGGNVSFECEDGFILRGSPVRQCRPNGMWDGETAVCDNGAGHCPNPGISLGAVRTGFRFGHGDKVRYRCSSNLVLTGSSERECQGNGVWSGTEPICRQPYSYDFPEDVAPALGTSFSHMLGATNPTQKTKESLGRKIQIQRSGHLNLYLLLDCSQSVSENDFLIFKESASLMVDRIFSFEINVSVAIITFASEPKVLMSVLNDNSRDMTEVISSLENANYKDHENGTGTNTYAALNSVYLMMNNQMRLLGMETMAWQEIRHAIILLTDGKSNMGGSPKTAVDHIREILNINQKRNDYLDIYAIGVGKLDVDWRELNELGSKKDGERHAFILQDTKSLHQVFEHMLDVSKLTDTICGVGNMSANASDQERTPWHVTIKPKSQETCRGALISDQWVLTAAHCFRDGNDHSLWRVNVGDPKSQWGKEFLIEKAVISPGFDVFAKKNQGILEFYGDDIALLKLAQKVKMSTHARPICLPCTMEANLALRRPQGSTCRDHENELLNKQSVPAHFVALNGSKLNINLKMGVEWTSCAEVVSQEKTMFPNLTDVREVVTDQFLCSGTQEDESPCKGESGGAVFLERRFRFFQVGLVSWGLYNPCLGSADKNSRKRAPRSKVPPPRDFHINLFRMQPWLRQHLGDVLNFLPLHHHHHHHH

A further assay concerns the target T3, human C2 V448A (human, UniProt P06681 21-752).
T3 sequence: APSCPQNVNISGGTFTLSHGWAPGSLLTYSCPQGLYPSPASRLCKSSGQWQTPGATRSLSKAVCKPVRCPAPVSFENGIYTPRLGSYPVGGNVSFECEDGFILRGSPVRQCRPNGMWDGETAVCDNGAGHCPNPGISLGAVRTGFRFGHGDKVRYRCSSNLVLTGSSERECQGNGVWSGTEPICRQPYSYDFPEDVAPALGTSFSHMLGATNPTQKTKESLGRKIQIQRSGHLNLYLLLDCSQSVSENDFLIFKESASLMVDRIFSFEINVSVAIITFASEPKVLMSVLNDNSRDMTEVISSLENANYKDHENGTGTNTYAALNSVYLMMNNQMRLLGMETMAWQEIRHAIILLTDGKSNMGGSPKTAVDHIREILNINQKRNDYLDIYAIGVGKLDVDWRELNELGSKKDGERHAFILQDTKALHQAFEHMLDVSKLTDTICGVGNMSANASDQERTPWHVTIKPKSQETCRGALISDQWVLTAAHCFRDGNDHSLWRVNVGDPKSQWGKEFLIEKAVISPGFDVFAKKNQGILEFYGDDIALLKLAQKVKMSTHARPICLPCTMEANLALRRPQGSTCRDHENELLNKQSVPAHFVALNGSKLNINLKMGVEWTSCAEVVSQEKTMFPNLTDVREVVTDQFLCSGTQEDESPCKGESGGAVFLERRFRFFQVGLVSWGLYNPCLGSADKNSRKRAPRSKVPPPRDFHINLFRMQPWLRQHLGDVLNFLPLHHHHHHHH

The target of another assay is T4, human C2 E450A (human, UniProt P06681 21-752).
T4 sequence: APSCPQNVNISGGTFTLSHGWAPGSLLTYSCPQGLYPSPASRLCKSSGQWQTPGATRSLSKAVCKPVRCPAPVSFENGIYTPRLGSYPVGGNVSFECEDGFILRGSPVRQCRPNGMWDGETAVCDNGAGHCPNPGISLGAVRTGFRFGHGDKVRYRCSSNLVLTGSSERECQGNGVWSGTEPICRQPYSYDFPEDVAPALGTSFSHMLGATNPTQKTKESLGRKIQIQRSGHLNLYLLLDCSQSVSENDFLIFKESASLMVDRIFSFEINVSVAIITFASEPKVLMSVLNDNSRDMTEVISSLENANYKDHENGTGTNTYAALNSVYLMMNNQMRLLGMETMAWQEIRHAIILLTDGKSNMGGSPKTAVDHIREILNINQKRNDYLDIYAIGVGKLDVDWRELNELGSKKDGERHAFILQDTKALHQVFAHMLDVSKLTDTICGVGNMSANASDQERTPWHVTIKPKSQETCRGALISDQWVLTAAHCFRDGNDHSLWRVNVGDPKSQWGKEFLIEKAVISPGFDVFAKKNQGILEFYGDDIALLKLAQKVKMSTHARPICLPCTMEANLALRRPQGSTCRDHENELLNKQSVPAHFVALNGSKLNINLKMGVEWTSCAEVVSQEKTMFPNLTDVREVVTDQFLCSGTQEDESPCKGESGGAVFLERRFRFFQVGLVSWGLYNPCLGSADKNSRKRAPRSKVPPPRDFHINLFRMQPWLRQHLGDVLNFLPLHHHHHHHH

B1: RF16-214 (antibody, V domains shown)
VH: EVQLLESGGGLVQPGGSLRLSCAASGFTFSWYQMMWVRQAPGKGLEWVSRIYPSGGGTAYADSVKGRFTISRDNSKNTLYLQMNSLRAEDTAVYYCARDAGYGDNWGQGTLVTVSS
VL: QSALTQPPSVSVSPGQTASITCSGDKLGEKYASWYQQKAGQSPVMVIYQDRKRPSGIPERFSGSNSGNTATLTISGTQAMDEADYYCQAWDTRAVVFGGGTKLTVLG
In the case of B1, the Kd was 29.6 nM with human C2 N403A, 20.7 nM in the assay with human C2 A444S, 6.9 nM with human C2 V448A and 627 nM in the assay with human C2 E450A.
